Source: patent publication US20180162928A1 (Janssen / Centocor, published 2018)
Changes are numbered by the printed parent chain.

B1: ISOP194HR9P1D11 (designed binder, not shown: small tags and cut ends)
chain: LPAPKNLVVSRVTEDSARLSWTAPDAAFDSFSILYGELIGDGEAIVLTVPGSERSYDLTGLKPGTEYTVYIFGVKGGRYSRPLSAIFTT
notes: FN3 domain; E. coli lysate in the ELISA
B2: ISOP121FR5P1H9 (designed binder, not shown: small tags and cut ends)
chain: B1 chain with L38T, I39A, G40P, D41I, T68V, F72Q, R78N, R81Q
notes: as for B1
B3: ISOP194HR9P1B2 (designed binder, not shown: small tags and cut ends)
chain: B1 chain with T65S
notes: as for B1
B4: ISOP121HR5P1F2 (designed binder, not shown: small tags and cut ends)
chain: B1 chain with S32T, L38T, I39Y, G40S, D41G, T68V, R78K, Y79W
notes: as for B1
B5: ISOP121AR5P1H1 (designed binder, not shown: small tags and cut ends)
chain: LPAPKNLVVSRVTEDSARLSWKQATKFVFDSFLIQYQESEKVGEAIVLTVPGSERSYDLTGLKPGTEYTVSIYGVPDWFVLESNPLSAIFTT
notes: as for B1
B6: ISOP121AR5P1E11 (designed binder, not shown: small tags and cut ends)
chain: B5 chain with K22S, Q23V, A24Q, K26S, D77L, F79H, V80G, L81F, E82D
notes: as for B1
B7: ISOP121BR5P1G3 (designed binder, not shown: small tags and cut ends)
chain: LPAPKNLVVSRVTEDSARLSWKQRTSFHFDSFLIQYQESEKVGEAIVLTVPGSERSYDLTGLKPGTEYTVSIYGVPFWQQWQPESNPLSAIFTT
notes: as for B1
B8: ISOP121AR5P1B8 (designed binder, not shown: small tags and cut ends)
chain: LPAPKNLVISRVTEDSARLSWDKRTQFAFDSFLIQYQESEKVGEAIVLTVPGSERSYDLTGLKPGTEYTVSIYGVPTWSGRTQSNPLSAIFTT
notes: as for B1
B9: ISOP121AR5P1A10 (designed binder, not shown: small tags and cut ends)
chain: LPAPKNLVVSRVTEDSARLSWPDWSNSEYFDSFLIQYQESEKVGEAIVLTVPGSERSYDLTGLKPGTEYTVSIYGVYARHRLFVSNPLSAIFTT
notes: as for B1
B10: ISOP194AR9P1G7 (designed binder, not shown: small tags and cut ends)
chain: B9 chain with P22G, W24D, S25F, A78T, H80A, R81V, L82V, V84T
notes: as for B1
B11: ISOP121GR5P1D7 (designed binder, not shown: small tags and cut ends)
chain: LPAPKNLVVSRVTEDSARLSWTAPDAAFDSFKIWYQERSIVGEAIFLLVPGSERSYDLTGLKPGTEYIVQIFGVKGGPYSNPLWAPFTT
notes: as for B1
B12: ISOP121AR5P1C5 (designed binder, not shown: small tags and cut ends)
chain: LPAPKNLVVSRVTEDSARLSWKRSDDEWFDSFLIQYQESEKVGEAIILTVPGSERSYDLTGLKPGTEYTVSIYGVYQRAALWFSNPLSAIFTT
notes: as for B1
B13: ISOP194AR9P1E3 (designed binder, not shown: small tags and cut ends)
chain: B12 chain with I47V
notes: as for B1
B14: ISOP121BR5P1D7 (designed binder, not shown: small tags and cut ends)
chain: LPAPKNLGCFSRYRRLSRLSWETPYPSLSNFDSFLIQYQESEKVGEAIVLTVPGSERSYDLTGLKPGTEYTVSIYGVLKLSAAWWPSNPLSAIFTT
notes: as for B1

Target: human serum albumin (human) (UniProt P02768)
Sequence (P02768 25-609 limits assumed): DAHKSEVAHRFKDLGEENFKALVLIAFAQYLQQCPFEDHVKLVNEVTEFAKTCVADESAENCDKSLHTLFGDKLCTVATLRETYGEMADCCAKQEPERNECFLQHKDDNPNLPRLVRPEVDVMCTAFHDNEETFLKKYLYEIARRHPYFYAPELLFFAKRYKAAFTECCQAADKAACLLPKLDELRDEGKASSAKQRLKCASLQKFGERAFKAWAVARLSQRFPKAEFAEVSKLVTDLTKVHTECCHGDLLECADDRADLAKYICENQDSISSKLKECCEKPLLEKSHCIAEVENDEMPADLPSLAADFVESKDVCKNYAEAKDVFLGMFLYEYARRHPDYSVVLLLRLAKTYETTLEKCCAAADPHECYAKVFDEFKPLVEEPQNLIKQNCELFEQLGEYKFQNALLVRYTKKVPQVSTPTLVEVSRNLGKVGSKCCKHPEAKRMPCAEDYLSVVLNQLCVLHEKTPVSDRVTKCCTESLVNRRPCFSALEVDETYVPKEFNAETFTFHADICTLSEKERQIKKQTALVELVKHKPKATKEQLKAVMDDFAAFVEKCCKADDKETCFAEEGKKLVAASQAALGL
Assay: ELISA, lysate on plate-bound antigen

Row | ELISA HSA (RSU) | Binder
1 | 1680 RSU | B1
2 | 880 RSU | B2
3 | 1840 RSU | B3
4 | 640 RSU | B4
5 | 880 RSU | B5
6 | 720 RSU | B6
7 | 640 RSU | B7
8 | 560 RSU | B8
9 | 560 RSU | B9
10 | 560 RSU | B10
11 | 720 RSU | B11
12 | 560 RSU | B12
13 | 800 RSU | B13
14 | 720 RSU | B14

Target: unrelated Fc-fused recombinant protein
Assay: ELISA, lysate on plate-bound antigen

Row | ELISA Fc Control (RSU) | Binder
15 | 480 RSU | B1
16 | 720 RSU | B2
17 | 400 RSU | B3
18 | 480 RSU | B4
19 | 880 RSU | B5
20 | 720 RSU | B6
21 | 560 RSU | B7
22 | 640 RSU | B8
23 | 1120 RSU | B9
24 | 1280 RSU | B10
25 | 720 RSU | B11
26 | 640 RSU | B12
27 | 1120 RSU | B13
28 | 800 RSU | B14

Target: T1, recombinant biotinylated PD-L1 (rhPD-L1/Fc Chimera, R&D Systems 156-B7) (human, UniProt Q9NZQ7 19-238, biotinylated (sites not given))
T1 construct: Bought Fc chimera; also called human PD-L1
T1 sequence (Q9NZQ7 19-238, change not shown): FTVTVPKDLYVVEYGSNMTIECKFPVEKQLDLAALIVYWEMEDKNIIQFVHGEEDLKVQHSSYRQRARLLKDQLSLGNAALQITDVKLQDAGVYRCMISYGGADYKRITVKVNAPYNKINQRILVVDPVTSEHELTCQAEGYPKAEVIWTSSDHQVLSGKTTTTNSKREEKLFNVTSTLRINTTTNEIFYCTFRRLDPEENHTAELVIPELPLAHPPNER
Assay: ELISA, lysate on plate-bound antigen
Method: Streptavidin-coated Maxisorp plates (Nunc catalog 436110) were blocked for 1 h in Starting Block T20 (Pierce) and then coated with biotinylated PD-L1 (using same antigen as in panning) or negative controls (an unrelated Fc-fused recombinant protein and human serum albumin) for 1 h. Plates were rinsed with TBST and diluted lysate was applied to plates for 1 h. Following additional rinses, wells were treated with HRP-conjugated anti-FN3 domain antibody (PAB25) for 1 h and then assayed with POD (Roche catalog 11582950001).

Row | ELISA PD-L1 Fc (RSU) | Binder
29 | 6.62e+06 RSU | B1
30 | 1.2e+06 RSU | B2
31 | 5.66e+06 RSU | B3
32 | 907000 RSU | B4
33 | 1.48e+06 RSU | B5
34 | 1.84e+06 RSU | B6
35 | 771000 RSU | B7
36 | 592000 RSU | B8
37 | 789000 RSU | B9
38 | 1.59e+07 RSU | B10
39 | 792000 RSU | B11
40 | 732000 RSU | B12
41 | 4.57e+06 RSU | B13
42 | 12800 RSU | B14
